Measured values taken from patent publication US20230128688A1, “DIRECTED CONJUGATION TECHNOLOGIES” (KLEO PHARMACEUTICALS, INC., priority 2019, published 2023).

Target: T cell receptor (TCR)/CD3 on effector Jurkat T cells
Experiment: cell-based or functional assay

Substance: III-1 (CD20×CD3; rituximab×SP34 scFv) (bispecific antibody)
- EC50 of T cell activation (NFAT-RE luciferase luminescence in Jurkat effector cells), effector only condition: > 10 nM
- EC50 of T cell activation (NFAT-RE luciferase luminescence in Jurkat effector cells), effector+target (Daudi) condition: 0.1 nM
